Patent publication US20030161791A1, “Water-soluble polymer conjugates of retinoic acid” (priority 2001, published 2003)

Columns and labels:
[1] = Recovery of ATRA and conjugate in plasma and lung tissue after intratracheal instillation in male rats; type: in vivo, Sprague Dawley Rats
Experimental: The following study in rats was conducted to determine plasma and lung tissue concentrations of non-PEGylated all-trans retinoic acid (ATRA control) versus a PEGylated all-trans retinoic acid, mPEG (5 kD)ATRA Ester Conjugate, after intratracheal instillation to male rats.
Animals: Hilltop Lab Animals Inc (P.O. Box 183, Scottdale, Pa. 15683) supplied pre-cannulated jugular vein catheter [JVC]) Sprague Dawley Rats (350-375 grams). The test system included 2 male rats randomly chosen for each of the 6 test groups.
ATRA and PEG-ATRA Samples: Non-PEGylated All-Trans Retinoic Acid was supplied as a powder containing 50% ATRA by weight (Control Article). The powder was stored at −20° C. and protected from light. Methoxy PEG (5 kD) ATRA ester conjugate (Test Article) was provided as a powder containing 5% ATRA by weight which was stored at −20° C. and protected from light.
ATRA Stock Solution/Control (2.0 mg/ml Stock): 3.0 mL of PBS was added to 6.0 mg of the ATRA powder. This solution was dosed as a suspension to the rats after sonication and vortexing.
Methoxy PEG (5 kD) ATRA ester conjugate (20.0 mg/mL Stock): 3.0 mL of PBS was added to 60.0 mg of the methoxy PEG (5 kD) ATRA ester conjugate powder.
Intratracheal Instillation: Administration of the control and test articles was achieved by intratracheal instillation under yellow lighting. The rats were lightly anesthetized using inhaled 3.0-5.0% isoflurane mixed with oxygen in a plexiglass anesthesia chamber. The dose was administered by inserting a gavage needle fitted with a 1 mL syringe into the mouth of the rat down the trachea to just above the carina. The dose was administered into the lungs utilizing this method, and then the gavage needle was removed. The animal was placed back in its cage and allowed to recover from the anesthesia on its own after the dosing procedure.
Rats were dosed IT with 354 μg (1.2 μmole) of RA or […] (1 μmole) ATRA equivalent of mPEG5K-ATRA.
Blood Collection: Predose blood samples of approximately 3.0 ml were collected from the jugular vein catheter into heparinized plasma tubes. At the designated sacrifice time for each animal a surgical plane of anesthesia was induced by using inhaled 3.0-5.0% isofluorane mixed with oxygen. […]
ATRA and PEG-ATRA were extracted from whole rat lung by first weighing and transferring the rat lung to an amber vial and cutting the lung into small pieces. […] The sample was then analyzed by HPLC.
Sample Analysis: Plasma and lung tissue samples were analyzed for all-trans retinoic acid concentrations by reverse-phase high performance liquid chromatography (HPLC) procedures for the lung tissue and by a liquid chromatography tandem mass spectrophotometer (LC-MS-MS) technique for the plasma samples. […]

[2] = Hydrolysis rate of PEG-ATRA ester conjugate in phosphate buffer; type: physicochemical; conditions: phosphate buffer 0.1M, pH 7.0, 0.5 wt %, pseudo-first-order kinetics
Experimental: The rate of hydrolysis in buffer of an exemplary PEG-ATRA conjugate in accordance with the invention was determined at two different temperatures, room temperature and body temperature.
MPEG 5 kDa ATRA (see Example 1) was dissolved in phosphate buffer (0.1M, pH 7.0) at a concentration of 0.5 wt % at temperatures of 23° C. and 37° C. At timed intervals, aliquots were removed for analysis by analytical reverse phase HPLC. The hydrolysis half-lives were obtained using pseudo-first-order kinetics. […] Thus, these conjugates can be characterized as water-soluble prodrugs forms of the retinoid.

[3] = Stability (degradation) of PEG-retinoid compositions versus unmodified parent retinoid; type: physicochemical; conditions: without free radical scavenger
Text: Additionally, a composition in accordance with the invention will preferably contain a free radical scavenger such as butylatedhydroxytoluene (BHT), ascorbic acid (vitamin C), or alpha tocopherol […]. […] Incorporation of a free radical scavenger in the composition was effective to substantially reduce or effectively eliminate free-radical induced degradation of the conjugate.

concentration at 1 h ([1]; male, Sprague Dawley, other: intratracheal instillation, 354 μg, rat plasma, one-hour timepoint, LC-MS-MS, read-out: plasma retinoic acid (ATRA) concentration) [ng/mL]	retention in the lung compared with pegylated / unmodified counterpart ([1]; rat, lung tissue (FIG. 3))	Compound	plasma retinoic acid (ATRA) concentration ([1]; rat plasma, one-hour timepoint, LC-MS-MS)	retained in the lung ([1]; rat, for at least up to 2 hours post administration, HPLC of lung tissue)	half-life (t 1/2) of the hydrolysis ([2]; 23° C.)	half-life (t 1/2) of the hydrolysis ([2]; 37° C.)	stability of the composition relative to compositions of the unmodified parent retinoid [3]
~145	to a lesser degree	CC1=C(/C=C/C(C)=C/C=C/C(C)=C/C(=O)O)C(C)(C)CCC1 [ATRA, all trans retinoic acid, reference compound]	–	–	–	–	–
–	–	mPEG (5 kDa) ATRA Ester Conjugate [Example 1]	approximately 65 ng/ml	greater than 70 % of the dose	about 3500 hours	about 877 hours	more prone to degradation
